Reference: US7094891 (CENTER FOR TRANSLATION RESEARCH IN CANCER, dated 2006)

Target: T1, Human Replication Protein A 32 (RPA32) (human, UniProt P15927 1-270, limits assumed)
T1 construct: Used in the yeast two-hybrid system; also called Replication Protein A 32KD subunit; 32-kDa middle subunit of RPA
Assay: yeast two-hybrid system (method named in paragraph 31)

T1 sequence (P15927 whole entry): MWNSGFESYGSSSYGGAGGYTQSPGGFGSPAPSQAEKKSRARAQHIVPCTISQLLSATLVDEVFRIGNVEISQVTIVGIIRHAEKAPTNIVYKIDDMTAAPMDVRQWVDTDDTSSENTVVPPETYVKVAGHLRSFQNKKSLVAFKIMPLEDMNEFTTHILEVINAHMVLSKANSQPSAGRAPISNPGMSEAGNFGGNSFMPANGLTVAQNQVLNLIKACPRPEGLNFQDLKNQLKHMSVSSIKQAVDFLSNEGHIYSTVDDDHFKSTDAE

B1: replication protein A binding transcriptional activator 1 (RBT1) (other)
chain: MEGGLKRKHSDLEEEEERWEWSPAGLQSYQQALLRISLDKVQRSLGPRAPSLRRHVLIHNTLQQLQAALRLAPAPALPPEPLFLGEEDFSLSATIGSILRELDTSMDGTEPPQNPVTPLGLQNEVPPQPDPVFLEALSSRYLGDSGLDDFFLDIDTSAVEKEPARAPPEPPHNLFCAPGSWEWNELDHIMEIILGS
notes: Open reading frame of 196 amino acids
B1: binds.
